According to US20240317865A1, “ANTIBODIES AGAINST INTEGRIN ALPHA 11 BETA 1” (MOMENTA PHARMACEUTICALS, INC., priority 2020, published 2024):

T1: α11β1 I Domain (Homo sapiens, UniProt Q9UKX5)
T1 sequence (Q9UKX5 164-345 limits assumed): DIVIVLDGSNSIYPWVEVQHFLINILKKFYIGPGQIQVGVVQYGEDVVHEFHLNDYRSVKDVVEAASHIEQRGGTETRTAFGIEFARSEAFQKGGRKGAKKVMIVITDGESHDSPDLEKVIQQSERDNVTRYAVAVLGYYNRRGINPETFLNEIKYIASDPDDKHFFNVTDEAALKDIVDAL


How the values were obtained:
[1] = test system: CHO-K1 human α11-mediated rat tail type I collagen gel contraction; assay: Collagen gel contraction assay; assay type: cell-based; details: compared to untreated condition
Experimental: 24-well plates were blocked with 2% BSA in PBS overnight at 37° C. The following day, the plates were washed 3 times with PBS before being used in the assay. Human CHO cell lines expressing α11 were harvested and resuspended at 1.25×10^6 in ExpiCHO Expression Medium (Gibco™ Cat #A2910002). The collagen gel solution was prepared by diluting 3 mg/mL stock collagen type I (Gibco™ Collagen I Rat Protein, Tail Cat #A1048301) to 1 mg/mL in the media containing the CHO cells. Sodium hydroxide was added to the solution to neutralize the pH and 400 μL of the collagen solution was added to each well of the 24-well plates. For the wells where the antibodies were included in the collagen gel solution, CHO cells were prepared at 2.5×10^6 and the antibodies were prepared at 2× final concentration in ExpiCHO media. The cells and antibodies were then combined 1:1 before the addition of the stock collagen type 1. The gels were allowed to polymerize for 60 minutes at 37° C. Antibodies were added to the ExpiCHO media, which was then layered on top of the polymerized gel (400 μL/well). The gels were incubated for 6 days at 37° C. before gel contraction was quantified. Images of each well were analyzed using Image J and gel contraction was determined as a percentage of the initial gel area.
Selected exemplary antibodies were tested for the ability to inhibit cell-mediated 3D gel contraction because this ability is directly linked to the functionality of the exemplary antibodies.

α11β1 Headpiece = assay: SPR binding to α11β1 Headpiece; set-up: species or system human; details: in words
Experimental: (§1) The affinity of antibodies for human α11β1 was measured by surface plasmon resonance assay (SPR). Affinity was measured at pH 7.6 and 25° C. with a Biacore T200 instrument. Anti-HIS antibody was immobilized on the SPR sensor surface using EDC/NHS covalent attachment. HIS-tagged human α11β1 was captured on the sensor surface and a single-cycle kinetics assay was used. Increasing concentrations of test antibody were injected in series over the sensor-bound α11β1. Dissociation was monitored for 1000 seconds. A sensor surface with only anti-HIS antibody and a series of blank injections were used to double-reference subtract the data. A 1:1 Langmuir model was fit to the data to estimate the kinetic association and dissociation constants. The affinity (equilibrium dissociation constant) of the interaction was calculated by dividing the kinetic dissociation constant by the kinetic association constant. Between injection cycles α11β1 and bound antibody were removed with an injection of 10 mM glycine at pH 1.5.
(§2) The binding affinity of antibodies for the α11β1 Headpiece and α11β1 I Domain as measured by SPR is shown in FIG. 10A and FIG. 10B, respectively.

α11β1 I Domain [2] = molecular target: T1, α11β1 I Domain; assay: SPR binding to α11β1 I Domain; details: in words
Experimental: as §1, §2

[3] = test system: human Precision-Cut Kidney Slices (PCKS); assay: Precision-Cut Kidney Slices (PCKS); assay type: cell-based; details: 72- and 96-hour time points at each dose tested (1, 10 and 50 μg/mL)
Experimental: PCKS were prepared from explanted fibrotic human kidney tissue and rested for 24 hours to allow the post-slicing stress period to elapse before experiments began. PCKS were cultured with TGF-β1 (3 ng/mL) and PDGFββ (50 ng/mL) in the presence or absence of Alk5i (10 μM, positive control), test anti-α11β1 antibodies over three doses (1, 10 and 50 μg/mL) or in the presence of IgG control antibodies at a single high dose. PCKS culture media was harvested every 24 hours for a total of 3 time points. Levels of Collagen type I α1 (col1a1) in the tissue culture supernatants were quantified using R&D Duoset ELISA kits. Statistics were performed using Two-way ANOVA followed by Dunnett's multiple comparisons test.
As described in the methods above, PCKS were prepared from explanted fibrotic human kidney tissue and rested for 24 hours to allow the post-slicing stress period to elapse before experiments began. PCKS were cultured with TGF-β1 (3 ng/ml) and PDGFββ (50 ng/mL) in the presence or absence of Alk5i (10 μM, positive control), test anti-α11β1 antibodies over three doses (1, 10 and 50 μg/mL) or in the presence of IgG control antibodies at a single high dose. PCKS culture media was harvested every 24 hours for a total of 3 time points. Levels of Collagen type I α1 (col1a1) in the tissue culture supernatants were quantified using R&D Duoset ELISA kits. […]

α11β1 I Domain [4] = molecular target: T1, α11β1 I Domain; assay: ELISA binding to in-house generated α11β1 I domain; set-up: An in-house generated I domain of α11β1 was used; made in house; details: in words
Experimental: 0.25 μg/mL of target antigen (recombinant human or mouse α11β1) was plated in a 96-well plate over night at 4° C. Plates were washed (PBS with 0.1% Tween-20), blocked (PBS with 2% BSA and 0.05% Tween-20) for 1 hour at room temperature and incubated with a range of antibody concentrations for 1 hour at room temperature. Subsequently, plates were washed and incubated with biotinylated anti-rabbit/mouse/human IgG in a 1:1000 dilution buffer and incubated for 1 hour at room temperature. After washing the plates, Streptavidin HRP was added at 1:200 in dilution buffer and incubated for 1 hour at room temperature. Ultra TMB ELISA substrate solution was added and the plates incubated for 5 minutes on a plate shaker. The reaction was stopped by adding stop solution to each well and plates were read at 450 nm.
Data was also collected to determine whether antibodies of interest bind to the I domain of α11β1. An in-house generated I domain of α11β1 was used. […] Mouse antibodies 10-F23, 10-L15, 7-O8, 6-A12, 9-G05 and 9-E16 and rabbit antibodies 7-H12 and 2-D3 were also tested for binding against the in-house generated α11β1 I domain. FIGS. 3A and 3B show graphs illustrating binding data from exemplary mAbs.

α1β1, α2β1 and/or α10β1 = assay: Counter-screen against other collagen receptors (off target); assay type: binding, human
Experimental: Wistar rats were immunized with recombinant human α11β1 protein. An enzyme-linked immunosorbent assay (ELISA) was used to test an immune response against target human and mouse proteins. Subsequently, cell fusion (by electro fusion) was performed with animals that produced a good immune response. All fused cells were plated in a 96-well plate and supernatants were screened by ELISA against soluble human and mouse α11β1. Positive clones were counter-screened against human α1β1, α2β1 and α10β1. […] Purified antibodies were then generated from the selected clones and heavy chain and light chain variable domain sequences were obtained from each purified antibody.
10 mice from 5 different strains were immunized with an appropriate mixture of human α11β1, mouse α11β1 and tolerance breaking protein. Plasma titers were evaluated by ELISA against a mixture of human and mouse α11β1. Popliteal, inguinal, and iliac lymph nodes were collected. ELISA-positive anti-human/mouse α11β1 hybridomas were expanded and subjected to a secondary screen against human and mouse α11β1, control HIS protein, and a counter-screen was performed against human […], α2β1 and α10β1. Supernatant IgG concentration was sufficient for functional screening. […]

Molecule	Inhibition of CHO-hu α11-mediated collagen gel contraction [1]	Binding to α11β1 headpiece domain (SPR) (α11β1 Headpiece)	Binding to α11β1 I domain (SPR) (α11β1 I Domain [2])	Inhibition of col1a1 secretion [3]	Binding to the I domain of α11β1 (α11β1 I Domain [4])	Cross-reactivity with other collagen receptors (α1β1, α2β1 and/or α10β1)
1994_01_C07: fully human anti-α11β1 mAb from phage display; HCDR3 SEQ ID NO: 267, LCDR3 SEQ ID NO: 271 (antibody, V domains shown) VH: QVQLVQSGAEVKKPGASVKVSCKASGYTFTSYGISWVRQAPGQGLEWMGWISAYNGNTNYAQKLQGRVTMTTDTSTSTAYMELRSLRSDDTAAYYCARVTGITGTTIDPWGQGTMVTVSS VL: DIQMTQSPSSLSASVGDRVTITCRASQSISSYLNWYQQKPGKAPKLLIYDASSLESGVPSRFSGSGSGTEFTLTISSLQPDDFAVYYCQQYNNWPQTFGQGTKVEIK	inhibited	do not bind	do not bind	significant inhibition of col1a1 secretion	–	–
40G10H11: rat anti-α11β1 mAb; VH SEQ ID NO: 157, VL SEQ ID NO: 158 (antibody, V domains shown) VH: MDIRLSLGFLVLFIKGDQCAVQLVESGGGLVQPGRSLKLSCAASRITFTDYYMAWVRQAPTKGLEWVATISSDGGDTFYRDSVKGRFTISRDNAKSTLYLQMVSLRSEDTATYYCSTDRGAQFGYWGQGTLVTVSS VL: MAPVQLLGLLLIWLPAMRCDIQMTQSPSFLSASVGDRVSINCKASQNVHENLNWYQQKLGEAPKRLIYNTNNLQTGIPSRFSGSGSGADYTLTISSLQPEDFATYFCLQHNAFPYTFGPGTKLELK	–	–	–	–	not found to be an I-domain binder	does cross-react with other collagen receptors
